# From US20230227514A1, “BETA-ARRESTIN COMPOSITIONS AND ASSOCIATED METHODS” (Duke University, priority 2020, published 2023)
# B1: βarrestin2-K296R: rat βarrestin2 with lysine-296 of the canonical SUMOylation site mutated to arginine (protein)
# chain: MGEKPGTRVFKKSSPNCKLTVYLGKRDFVDHLDKVDPVDGVVLVDPDYLKDRKVFVTLTCAFRYGREDLDVLGLSFRKDLFIATYQAFPPMPNPPRPPTRLQDRLLKKLGQHAHPFFFTIPQNLPCSVTLQPGPEDTGKACGVDFEIRAFCAKSIEEKSHKRNSVRLIIRKVQFAPETPGPQPSAETTRHFLMSDRRSLHLEASLDKELYYHGEPLNVNVHVTNNSAKTVKKIRVSVRQYADICLFSTAQYKCPVAQLEQDDQVSPSSTFCKVYTITPLLSDNREKRGLALDGQLRHEDTNLASSTIVKEGANKEVLGILVSYRVKVKLVVSRGGDVSVELPFVLMHPKPHDHITLPRPQSAPREIDIPVDTNLIEFDTNYATDDDIVFEDFARLRLKGMKDDDCDDQFC
# modifications: left off: large carriers
# Key:
# Assay type in all cases: cell-based
# [1] = molecular target: T1, β2AR (Homo sapiens, UniProt P07550); assay: Confocal trafficking and colocalization with β2AR
# T1 construct: Flag (N); expressed in transfected cells
# Experimental: (§1) Immunostaining and confocal microscopy. […] Twenty-four hours post-transfection, cells were serum-starved for 4 h, and either left untreated or treated with respective agonists for the indicated times in the Figure descriptions. After stimulation, cells were fixed with 5% formaldehyde diluted in phosphate-buffered saline (PBS), permeabilized with 0.1% Triton in PBS containing 2% bovine serum albumin for 20 min and incubated at room temperature with appropriate primary antibody. The next day, cells were washed three times with PBS and incubated with Alexa594 conjugated secondary antibody for 1 h, followed by repeated washes using PBS. Confocal images were acquired using Zeiss LSM510 laser-scanning microscope using multitrack sequential with excitation (488 and 568 nm) and emission (BP 505-550 nm and LP 585 nm) filter sets. Images (1024×1024 pixels) were collected using either a 63× or 100× oil immersion lens. Images were processed for Figure presentation using Adobe Photoshop software, and any increase or decrease of brightness/contrast was applied to the entire image. The nuclear rim localization of YFP-βarrestin2-SUMO1 is readily visualized in cells with low to moderate expression of YFP-protein. In cells with high expression, this localization is present, and can be discerned by enlarging sections of the nuclear rim.
# For βarrestin2-SUMO1, plasma membrane translocation was detected upon β2AR agonist activation, and, intriguingly, βarrestin2-SUMO1 was detected in endocytic vesicles. […] Confocal images were taken of cells stably expressing the β2AR and transiently expressing YFP-SUMO1 (data not shown). In both quiescent and agonist-treated cells, the SUMO1 protein remained in the nucleus. […] See Shenoy et al. 2007, supra; Shenoy and Lefkowitz. 2005. J Biol Chem 280:15315-15324; and Shenoy and Lefkowitz. 2003. J Biol Chem 278:14498-14506. Therefore, the endosomal trafficking was compared for βarrestin2-ubiquitin (βarrestin2-Ub) fusion protein and internalized β2ARs. […]
# [2] = molecular target: T1, β2AR; assay: BRET assay of βarrestin1 construct recruitment to β2AR; conditions: with or without isoproterenol stimulation
# Text: The bar graph summarizes the BRET ratio corresponding to the recruitment of βarrestin1 or βarrestin1-SUMO1 fusion protein to the β2AR with or without isoproterenol (β2AR agonist) stimulation, as described in Example 1 herein.
# (§2) BRET assays. […] Titration assays were first completed, which allowed determination of the specificity of association among different interaction partners. See Nagi and Shenoy. 2019, supra; Gales et al. 2005. Nature methods 2:177-184; Nagi et al. 2015. Cellular and molecular life sciences: CMLS 72:3543-3557; Audet and Pineyro. 2011. Methods in molecular biology 756:149-163; and Rebois et al. 2006. Journal of cell science 119:2807-2818. […] BRET readings were acquired using Synergy Neo2 plate reader and obtained 5 min after manual addition of Rluc substrate, coelenterazine h (Promega) to a final concentration of 5 μM.
# (§3) The BRET signal generated was determined by calculating the ratio of light emitted by YFP (520-550 nm) over the light emitted by Rluc (440-480 nm). These values were then corrected by subtracting the background signal (detected when the Rluc-tagged construct was expressed without acceptor) from the BRET signal detected in cells co-expressing both donor and acceptor constructs. Agonist-induced BRET values were calculated by subtracting net BRET values of non-stimulated conditions from net BRET values corresponding to the stimulated conditions.
# [3] = molecular target: T2, glucagon receptor (GCGR) (Homo sapiens, UniProt P47871); assay: BRET assay of βarrestin1 construct recruitment to GCGR; conditions: GCGR activation with glucagon
# T2 construct: expressed in transfected cells; host or cells: HEK-293T
# Text: The bar graph summarizes the BRET ratio corresponding to the recruitment of βarrestin1 or βarrestin1-SUMO1 fusion protein to the GCGR with or without glucagon (GCGR agonist) stimulation, as described in Example 1 herein.
# as §2, §3
# [4] = tested on: RanGAP1; assay: Western blotting of RanGAP1 levels on βarrestin2 overexpression; conditions: RanGAP1/GAPDH ratio, Western blot
# Text: HEK-293T cells stably transfected with β2AR were transfected with vector or YFP-βarrestin2. […] The unmodified RanGAP1 band (70 kDa) was divided by cognate GAPDH and plotted as a ratio. The bar graph (bottom panel) summarizes values from three independent experiments. *p=0.006, unpaired t test.
# In these experiments, SUMO1 by itself is not localized at the nuclear membrane in HEK-293 cells; only βarrestin2-SUMO1 is localized at the nuclear membrane. […] It is well established that RanGAP1 is expressed in cells predominantly in the SUMOylated state. This is illustrated in immunoblots (FIGS. 9-11), in which the RanGAP1 antibody detects two bands, SUMO-RanGAP1 (approximately 90 kDa) and RanGAP1 (approximately 70 kDa).
# [5] = molecular target: T3, D2R (Homo sapiens, UniProt P14416); assay: Confocal trafficking and colocalization with D2R; conditions: HEK-293 cells stably expressing D2R
# T3 construct: HA (N); expressed in transfected cells
# Experimental: as §1, with “rim. […]” for “rim.”
# [6] = molecular target: T4, D1 dopamine receptor (D1R) (Homo sapiens, UniProt P21728); assay: Confocal trafficking and colocalization with D1R; conditions: HEK-293 cells with stable D1R expression; dopamine 15 minutes
# T4 construct: expressed in transfected cells
# Experimental: as §1, with “rim. […]” for “rim.”
# [7] = molecular target: T5, RanGAP1 (Homo sapiens, UniProt P46060); assay: Confocal colocalization with endogenous RanGAP1 at the nuclear envelope; conditions: HEK-293 cells with or without β2AR agonist stimulation
# T5 construct: endogenous in cells; host or cells: HEK-293T / HEK-293
# Experimental: as §1, with “rim. […]” for “rim.”
# [8] = molecular target: T6, SUMO1 (Homo sapiens, UniProt P63165); assay: SUMOylation of FLAG-βarrestin2 constructs co-expressed with His6-SUMO1 (FLAG IP, immunoblot); conditions: overexpressed in HEK-293 cells along with His-SUMO1
# T6 construct: His6 (N); expressed in transfected cells; host or cells: HEK-293 (transient)
# Text: HEK-293 cells were transfected with vector, FLAG-βarrestin2 (WT) or FLAG-βarrestin2-K296R along with His6-SUMO1.
# SUMOylation is targeted to a canonical protein sequence (Ψ-K-X-D/E), where Ψ is an aliphatic amino acid, K is the target site for the covalent modification by SUMO, X is any amino acid and is followed by an acidic residue. See Sampson et al. 2001. J Biol Chem 276:21664-21669. […] See Wyatt et al. 2011 and Xiao et al. 2015, both supra.
# T2 sequence (P47871 26-477, species assumed): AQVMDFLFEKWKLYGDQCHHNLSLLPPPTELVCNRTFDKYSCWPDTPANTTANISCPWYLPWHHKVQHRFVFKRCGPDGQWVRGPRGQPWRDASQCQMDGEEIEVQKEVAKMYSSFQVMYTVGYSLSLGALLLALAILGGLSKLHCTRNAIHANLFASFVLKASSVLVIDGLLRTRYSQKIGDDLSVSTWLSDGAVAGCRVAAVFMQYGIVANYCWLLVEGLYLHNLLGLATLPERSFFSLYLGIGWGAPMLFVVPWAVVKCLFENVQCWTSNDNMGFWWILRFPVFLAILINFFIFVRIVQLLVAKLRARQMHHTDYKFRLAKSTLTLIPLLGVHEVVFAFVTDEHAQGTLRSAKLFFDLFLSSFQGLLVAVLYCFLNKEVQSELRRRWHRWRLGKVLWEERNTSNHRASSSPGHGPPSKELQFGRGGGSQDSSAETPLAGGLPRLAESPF
# T4 sequence (P21728 whole entry): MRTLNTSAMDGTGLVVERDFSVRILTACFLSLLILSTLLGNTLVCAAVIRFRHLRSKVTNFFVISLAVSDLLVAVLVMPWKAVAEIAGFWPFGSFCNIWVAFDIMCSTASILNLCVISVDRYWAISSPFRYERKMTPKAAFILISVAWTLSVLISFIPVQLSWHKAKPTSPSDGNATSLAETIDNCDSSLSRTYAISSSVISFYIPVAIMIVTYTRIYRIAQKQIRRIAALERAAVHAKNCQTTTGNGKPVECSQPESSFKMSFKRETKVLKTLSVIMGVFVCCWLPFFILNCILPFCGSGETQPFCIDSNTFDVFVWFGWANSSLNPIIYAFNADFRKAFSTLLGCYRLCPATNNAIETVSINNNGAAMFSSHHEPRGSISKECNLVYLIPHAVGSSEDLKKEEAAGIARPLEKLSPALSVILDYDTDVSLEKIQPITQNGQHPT
# T6 sequence (P63165 1-97 limits assumed): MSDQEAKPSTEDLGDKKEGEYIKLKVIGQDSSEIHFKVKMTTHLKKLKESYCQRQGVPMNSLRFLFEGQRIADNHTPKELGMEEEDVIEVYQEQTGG
# T5 sequence (P46060 2-587 limits assumed): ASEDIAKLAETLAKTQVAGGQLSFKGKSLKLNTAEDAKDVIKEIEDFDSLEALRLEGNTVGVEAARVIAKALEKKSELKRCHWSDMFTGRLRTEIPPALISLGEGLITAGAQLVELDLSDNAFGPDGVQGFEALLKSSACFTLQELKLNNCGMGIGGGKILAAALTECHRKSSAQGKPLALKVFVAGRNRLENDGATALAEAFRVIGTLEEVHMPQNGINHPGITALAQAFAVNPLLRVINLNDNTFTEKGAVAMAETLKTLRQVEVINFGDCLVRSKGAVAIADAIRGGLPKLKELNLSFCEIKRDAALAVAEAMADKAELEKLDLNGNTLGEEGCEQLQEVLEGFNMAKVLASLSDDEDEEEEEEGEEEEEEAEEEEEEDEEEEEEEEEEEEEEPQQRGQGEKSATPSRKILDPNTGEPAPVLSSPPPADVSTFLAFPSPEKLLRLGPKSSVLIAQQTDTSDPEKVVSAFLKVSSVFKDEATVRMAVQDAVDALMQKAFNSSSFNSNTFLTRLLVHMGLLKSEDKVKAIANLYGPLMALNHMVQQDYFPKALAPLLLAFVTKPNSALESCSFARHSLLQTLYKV
# T5 sequence (P63165 2-97 partner limits assumed): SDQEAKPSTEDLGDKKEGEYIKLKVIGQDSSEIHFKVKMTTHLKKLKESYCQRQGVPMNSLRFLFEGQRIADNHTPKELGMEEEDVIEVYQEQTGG
# T3 sequence (P14416 whole entry): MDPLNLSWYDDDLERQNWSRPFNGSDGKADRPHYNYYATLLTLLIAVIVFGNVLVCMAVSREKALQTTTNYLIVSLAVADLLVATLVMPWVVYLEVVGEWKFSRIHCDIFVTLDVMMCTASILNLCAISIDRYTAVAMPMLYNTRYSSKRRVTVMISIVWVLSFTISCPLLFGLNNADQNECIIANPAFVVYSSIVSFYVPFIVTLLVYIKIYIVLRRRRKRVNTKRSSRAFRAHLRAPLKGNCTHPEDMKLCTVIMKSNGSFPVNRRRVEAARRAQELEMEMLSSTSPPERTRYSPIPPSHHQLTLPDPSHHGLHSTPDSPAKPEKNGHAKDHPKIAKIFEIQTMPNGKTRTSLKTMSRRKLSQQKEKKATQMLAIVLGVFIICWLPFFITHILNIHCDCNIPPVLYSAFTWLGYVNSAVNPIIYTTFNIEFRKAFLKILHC
molecule,measurement,setting,value
βarrestin1-SUMO1: rat βarrestin1 polypeptide fused to human SUMO1 (SEQ ID NO:2),colocalization of βarrestin1 constructs with β2AR (confocal),"[1]; HEK-293 cells, isoproterenol",strong colocalization
same,association with β2AR by BRET ratio,[2],significantly more binding
same,association with GCGR by BRET,[3],significantly more binding
"βarrestin1: wild-type rat βarrestin1 (SEQ ID NO:4), used as comparator [reference compound]",association with β2AR by BRET ratio,[2],weak association
same,association with GCGR by BRET,[3],weak association
"βarrestin2: wild-type rat βarrestin2 (SEQ ID NO:3), tagged, used as comparator [reference compound]",colocalization / complexes with β2AR after agonist activation (confocal),"[1]; HEK-293 cells with stable β2AR expression, agonist up to 20 minutes",no colocalization was detected
same,increase of unmodified RanGAP1 band (approximately 70 kDa) versus vector transfected cells,[4],50%
same,stability of association with activated D2R (confocal),[5],not stable
same,association with D1R after dopamine activation (confocal),[6],weak association
same,colocalization with endogenous RanGAP1 at the nuclear envelope,[7],Minimal colocalization
B1,SUMOylation compared with rat βarrestin2 (WT),[8],significantly decreased but not eliminated
